Results from the Immune Epitope Database (IEDB).

Experiments:
Experiment in all cases: IEDB peptide-MHC binding, purified MHC/competitive/radioactivity; filed as Kd, often an IC50 or EC50 that approximates it; ≥ and ≤ were set here for values at or beyond the usual limits of such assays
HLA-A*03:01 = biological target: HLA-A*03:01
HLA-A*11:01 = biological target: HLA-A*11:01
HLA-A*31:01 = biological target: HLA-A*31:01
HLA-A*33:01 = biological target: HLA-A*33:01
HLA-A*68:01 = biological target: HLA-A*68:01
[1] = source organism: Dengue virus 1 Brazil/97-11/1997
[2] = source organism: SARS coronavirus Tor2
[3] = source organism: Vaccinia virus WR
[4] = source organism: Mammarenavirus guanaritoense
[5] = source organism: Dengue virus 3 Martinique/1243/1999
[6] = source organism: Dengue virus 2 Jamaica/1409/1983
[7] = source organism: Mammarenavirus whitewaterense
[8] = source organism: Mammarenavirus juninense
[9] = source organism: Lassa virus Josiah

Sequence: VLLGSFGCK
- Kd (HLA-A*03:01; [1]): 11.9 nM

Sequence: GFAAYNRYR
- Kd (HLA-A*03:01; [2]): 5710 nM
- Kd (HLA-A*11:01; [2]): 6570 nM
- Kd (HLA-A*31:01; [2]): 821 nM
- Kd (HLA-A*33:01; [2]): 9670 nM
- Kd (HLA-A*68:01; [2]): ≥ 27000 nM

Sequence: RLLHCVTESY
- Kd (HLA-A*03:01; [3]): 72.7 nM
- Kd (HLA-A*11:01; [3]): 40.2 nM
- Kd (HLA-A*31:01; [3]): 31.3 nM
- Kd (HLA-A*33:01; [3]): 6940 nM
- Kd (HLA-A*68:01; [3]): 598 nM

Sequence: WVLAYMLFTK
- Kd (HLA-A*03:01; [2]): 24 nM
- Kd (HLA-A*11:01; [2]): 32.7 nM
- Kd (HLA-A*31:01; [2]): 1260 nM
- Kd (HLA-A*33:01; [2]): 3950 nM
- Kd (HLA-A*68:01; [2]): 104 nM

Sequence: DIFVSLVKK
- Kd (HLA-A*03:01; [3]): 9920 nM
- Kd (HLA-A*11:01; [3]): 27.8 nM
- Kd (HLA-A*31:01; [3]): ≥ 77900 nM
- Kd (HLA-A*33:01; [3]): 54 nM
- Kd (HLA-A*68:01; [3]): 0.538 nM

Sequence: STTDAEACY
- Kd (HLA-A*03:01; [3]): ≥ 47800 nM
- Kd (HLA-A*11:01; [3]): 432 nM
- Kd (HLA-A*31:01; [3]): ≥ 75400 nM
- Kd (HLA-A*33:01; [3]): 17400 nM
- Kd (HLA-A*68:01; [3]): 163 nM

Sequence: ISSVLTILYY
- Kd (HLA-A*03:01; [3]): 561 nM
- Kd (HLA-A*11:01; [3]): 155 nM
- Kd (HLA-A*31:01; [3]): 5890 nM
- Kd (HLA-A*33:01; [3]): 1430 nM
- Kd (HLA-A*68:01; [3]): 162 nM

Sequence: DIVNNFITK
- Kd (HLA-A*03:01; [3]): ≥ 40800 nM
- Kd (HLA-A*11:01; [3]): 1010 nM
- Kd (HLA-A*31:01; [3]): ≥ 29200 nM
- Kd (HLA-A*33:01; [3]): ≥ 26800 nM
- Kd (HLA-A*68:01; [3]): 86.4 nM

Sequence: KGLGHDFLR
- Kd (HLA-A*31:01; [4]): 0.134 nM
- Kd (HLA-A*33:01; [4]): ≥ 77700 nM
- Kd (HLA-A*68:01; [4]): ≥ 21600 nM

Sequence: SMLNIMNRR
- Kd (HLA-A*31:01; [1]): 1.54 nM
- Kd (HLA-A*33:01; [1]): 68.3 nM

Sequence: MGANFRADR
- Kd (HLA-A*68:01; [1]): 17 nM

Sequence: IVTFRERYSY
- Kd (HLA-A*03:01; [3]): 469 nM
- Kd (HLA-A*11:01; [3]): 144 nM
- Kd (HLA-A*31:01; [3]): 194 nM
- Kd (HLA-A*33:01; [3]): 14300 nM
- Kd (HLA-A*68:01; [3]): 1020 nM

Sequence: IISDMYDPR
- Kd (HLA-A*03:01; [2]): 12800 nM
- Kd (HLA-A*11:01; [2]): 122 nM
- Kd (HLA-A*31:01; [2]): 325 nM
- Kd (HLA-A*33:01; [2]): 1340 nM
- Kd (HLA-A*68:01; [2]): 5.41 nM

Sequence: AFSLDVSEK
- Kd (HLA-A*03:01; [2]): 12100 nM
- Kd (HLA-A*11:01; [2]): 3550 nM
- Kd (HLA-A*31:01; [2]): 12300 nM
- Kd (HLA-A*33:01; [2]): ≥ 77700 nM
- Kd (HLA-A*68:01; [2]): 6740 nM

Sequence: TMRIYCSLFK
- Kd (HLA-A*03:01; [3]): 1.18 nM
- Kd (HLA-A*11:01; [3]): 0.21 nM
- Kd (HLA-A*31:01; [3]): 1.78 nM
- Kd (HLA-A*33:01; [3]): 93.5 nM
- Kd (HLA-A*68:01; [3]): 26.7 nM

Sequence: FTSTNDKIK
- Kd (HLA-A*03:01; [3]): 1190 nM
- Kd (HLA-A*11:01; [3]): 58.8 nM
- Kd (HLA-A*31:01; [3]): 15200 nM
- Kd (HLA-A*33:01; [3]): ≥ 77700 nM
- Kd (HLA-A*68:01; [3]): 113 nM

Sequence: MFAVGLLFR
- Kd (HLA-A*31:01; [1]): ≥ 66700 nM
- Kd (HLA-A*33:01; [1]): 1.05 nM
- Kd (HLA-A*68:01; [1]): 61.9 nM

Sequence: KAPNVISSK
- Kd (HLA-A*03:01; [3]): 1.89 nM
- Kd (HLA-A*11:01; [3]): 7.02 nM
- Kd (HLA-A*31:01; [3]): 175 nM
- Kd (HLA-A*33:01; [3]): ≥ 22600 nM
- Kd (HLA-A*68:01; [3]): 155 nM

Sequence: RAIMATIQR
- Kd (HLA-A*03:01; [2]): 2720 nM
- Kd (HLA-A*11:01; [2]): 90.9 nM
- Kd (HLA-A*31:01; [2]): 45.7 nM
- Kd (HLA-A*33:01; [2]): 7140 nM
- Kd (HLA-A*68:01; [2]): 72 nM

Sequence: RVSTGSQLAK
- Kd (HLA-A*03:01; [1]): 75.5 nM
- Kd (HLA-A*11:01; [1]): 75.7 nM

Sequence: ETKGVERLK
- Kd (HLA-A*68:01; [5]): 33.3 nM

Sequence: ITPTIEDDK
- Kd (HLA-A*03:01; [3]): ≥ 78000 nM
- Kd (HLA-A*11:01; [3]): 6560 nM
- Kd (HLA-A*31:01; [3]): ≥ 77900 nM
- Kd (HLA-A*33:01; [3]): ≥ 77700 nM
- Kd (HLA-A*68:01; [3]): 528 nM

Sequence: EACYIYKSGK
- Kd (HLA-A*03:01; [3]): 1080 nM
- Kd (HLA-A*11:01; [3]): 1010 nM
- Kd (HLA-A*31:01; [3]): 6450 nM
- Kd (HLA-A*33:01; [3]): 11100 nM
- Kd (HLA-A*68:01; [3]): 31.8 nM

Sequence: LSYVIGLLPH
- Kd (HLA-A*03:01; [4]): 2260 nM
- Kd (HLA-A*11:01; [4]): ≥ 35800 nM
- Kd (HLA-A*31:01; [4]): 8940 nM
- Kd (HLA-A*33:01; [4]): ≥ 70000 nM
- Kd (HLA-A*68:01; [4]): ≥ 70100 nM

Sequence: LTQIFEVYWY
- Kd (HLA-A*03:01; [3]): 990 nM
- Kd (HLA-A*11:01; [3]): 348 nM
- Kd (HLA-A*31:01; [3]): 934 nM
- Kd (HLA-A*33:01; [3]): 1260 nM
- Kd (HLA-A*68:01; [3]): 936 nM

Sequence: SMFEPEREK
- Kd (HLA-A*03:01; [6]): 83.6 nM
- Kd (HLA-A*11:01; [6]): 1140 nM

Sequence: VSTVQQLTK
- Kd (HLA-A*11:01; [6]): 604 nM

Sequence: LFYVSSIFLH
- Kd (HLA-A*03:01; [7]): 6040 nM
- Kd (HLA-A*11:01; [7]): 2240 nM
- Kd (HLA-A*31:01; [7]): 319 nM
- Kd (HLA-A*33:01; [7]): 73.7 nM
- Kd (HLA-A*68:01; [7]): 980 nM

Sequence: MRYTCLNSEK
- Kd (HLA-A*03:01; [8]): 283 nM
- Kd (HLA-A*11:01; [8]): ≥ 49100 nM
- Kd (HLA-A*31:01; [8]): 5030 nM
- Kd (HLA-A*33:01; [8]): 6780 nM
- Kd (HLA-A*68:01; [8]): 10100 nM

Sequence: VAFELWAKR
- Kd (HLA-A*03:01; [2]): 9440 nM
- Kd (HLA-A*11:01; [2]): 3270 nM
- Kd (HLA-A*31:01; [2]): 76.9 nM
- Kd (HLA-A*33:01; [2]): 52 nM
- Kd (HLA-A*68:01; [2]): 23.4 nM

Sequence: GIPYCNYSK
- Kd (HLA-A*03:01; [9]): 3330 nM
- Kd (HLA-A*11:01; [9]): 118 nM
- Kd (HLA-A*31:01; [9]): ≥ 45000 nM
- Kd (HLA-A*33:01; [9]): ≥ 24200 nM
- Kd (HLA-A*68:01; [9]): 444 nM

Sequence: TAIKEVVMAY
- Kd (HLA-A*03:01; [3]): 4430 nM
- Kd (HLA-A*11:01; [3]): 1110 nM
- Kd (HLA-A*31:01; [3]): 4280 nM
- Kd (HLA-A*33:01; [3]): ≥ 21400 nM
- Kd (HLA-A*68:01; [3]): 317 nM

Sequence: MSYSMCTGK
- Kd (HLA-A*03:01; [6]): 4.21 nM
- Kd (HLA-A*11:01; [6]): 34.2 nM
- Kd (HLA-A*68:01; [6]): 81.8 nM

Sequence: FISDNKKEY
- Kd (HLA-A*03:01; [3]): ≥ 78000 nM
- Kd (HLA-A*11:01; [3]): ≥ 77900 nM
- Kd (HLA-A*31:01; [3]): ≥ 77900 nM
- Kd (HLA-A*33:01; [3]): ≥ 77700 nM
- Kd (HLA-A*68:01; [3]): 7070 nM

Sequence: QFKQDAKYSH
- Kd (HLA-A*03:01; [9]): ≥ 70000 nM
- Kd (HLA-A*11:01; [9]): ≥ 69700 nM
- Kd (HLA-A*31:01; [9]): 18200 nM
- Kd (HLA-A*33:01; [9]): 10600 nM
- Kd (HLA-A*68:01; [9]): ≥ 70100 nM

Sequence: NKKPRICTR
- Kd (HLA-A*33:01; [1]): 2970 nM

Sequence: LSCTKNNSHH
- Kd (HLA-A*03:01; [9]): ≥ 70000 nM
- Kd (HLA-A*11:01; [9]): ≥ 63800 nM
- Kd (HLA-A*31:01; [9]): ≥ 70000 nM
- Kd (HLA-A*33:01; [9]): ≥ 70000 nM
- Kd (HLA-A*68:01; [9]): ≥ 37400 nM

Sequence: RTLGRNKRPR
- Kd (HLA-A*31:01; source organism: Dengue virus 3 Sri Lanka/1266/2000): 6.81 nM

Sequence: KSGAIKVLK
- Kd (HLA-A*03:01; [5]): 104 nM
- Kd (HLA-A*11:01; [5]): 150 nM
- Kd (HLA-A*31:01; [5]): 8.84 nM

Sequence: VYTQLCDHR
- Kd (HLA-A*33:01; [5]): 1900 nM

Sequence: KISVQYNLSH
- Kd (HLA-A*11:01; [9]): 203 nM

Sequence: GLLLRKLTSK
- Kd (HLA-A*03:01; [6]): 39.6 nM

Sequence: KFQPESPAR
- Kd (HLA-A*31:01; source organism: Dengue virus 4 Philippines/H241/1956): 64.2 nM

Sequence: ACQEAVKLK
- Kd (HLA-A*33:01; [8]): ≥ 77700 nM

Sequence: TLITGNMSFR
- Kd (HLA-A*33:01; [6]): 289 nM
- Kd (HLA-A*68:01; [6]): 12.3 nM

Sequence: ALALGMMVLK
- Kd (HLA-A*03:01; [6]): 24 nM
- Kd (HLA-A*11:01; [6]): 13.7 nM
